Laboratory results published in patent US11814447B2, “Peptide ligands for binding to EphA2” (BICYCLERD LIMITED, priority 2018, dated 2023).
Starred links: 1 amine or outer side, 2 acyl side, 3 side chain; linkers in the order of their positions; H or OH if unused. Positions of bridges follow the written chain, without caps; N, C: chain ends. Non-standard residues stand in square brackets, D forms with d. Primed or numbered codes have the meaning given here. No end group written: not given here. TBMB′ = 1,3,5-tris(bromomethyl)benzene, 1,3,5-tris(methylene)benzene core, three thioethers to Cys; TATA = O=C(CC[*:1])N1CN(C(=O)CC[*:2])CN(C(=O)CC[*:3])C1; Fl″ = fluorescein label (5(6)-carboxyfluorescein; 1Nal = N[C@@H](Cc1cccc2ccccc12)C(=O)O; TBMB = c1c(C[*:1])cc(C[*:3])cc1C[*:2]; hArg = N=C(N)NCCCC[C@H](N)C(=O)O; Tle = CC(C)(C)[C@H](N)C(=O)O; Dap = NC[C@H](N)C(=O)O; AF488 = AlexaFluor488; Aib = CC(C)(N)C(=O)O; βAla = NCCC(=O)O; Sar = CNCC(=O)O

Assays:
[1] = target: Human EphA2 (Ecto) (Human) (UniProt P29317); experiment: FP competition; tracer Reference Compound C
[2] = target: Mouse EphA2 (Ecto) (Mouse) (UniProt Q03145); experiment: FP competition; tracer Reference Compound C
[3] = target: Human EphA2 (Ecto) (Human) (UniProt P29317); experiment: FP competition, tracer Compound 18
[4] = target: Mouse EphA2 (Ecto) (Mouse) (UniProt Q03145); experiment: FP competition, tracer Compound 18
Mouse EphA2 (Ecto) [5] = target: T1, Mouse EphA2 (Ecto) (Mouse, UniProt Q03145 26-538); experiment: fluorescence polarisation, direct binding
T1 construct: extracellular domain; not shown: Fc fusion or C-terminal polyHis

[6] = target: T2, Human EphA2 (Ecto), C-terminal polyHis (Human, UniProt P29317 24-537); experiment: fluorescence polarisation competition; competitor fluorescent Compound 1
T2 construct: extracellular domain; also called EPH receptor A2; ephrin type-A receptor 2
Method: (§1) Peptides without a fluorescent tag were tested in competition with a peptide with a fluorescent tag and a known Kd (Table 2). Peptides were diluted to an appropriate concentration in assay buffer as described in the direct binding assay with a maximum of 5% DMSO, then serially diluted 1 in 2. […] Measurements were conducted as for the direct binding assay, however the gain was determined prior to the first measurement. Data analysis was in Systat Sigmaplot version 12.0 where the mP values were fit to a user defined cubic equation to generate a Ki value: […]

[7] = target: T2, Human EphA2 (Ecto), C-terminal polyHis; experiment: fluorescence polarisation competition; competitor fluorescent Compound 12
Method: as §1

[8] = target: T2, Human EphA2 (Ecto), C-terminal polyHis; experiment: fluorescence polarisation competition; competitor fluorescent Compound 66
Procedure, shortened: (§2)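 Unlabelled peptides competed against a fluorescently tagged peptide of known Kd. Peptides were diluted in direct-binding assay buffer (≤5% DMSO) and serially diluted 1 in 2. Read as in the direct binding assay, with gain set before the first read; mP values fit to a cubic equation to give Ki.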

[9] = target: Human EphA2 (Ecto) (Human) (UniProt P29317); experiment: FP direct binding
Human EphA2 (Ecto) = target: T3, Human EphA2 (Ecto) (Human, UniProt P29317 24-537); experiment: FP competition, tracer Compound 18
T3 construct: extracellular domain
Procedure, shortened: as §2

Mouse EphA2 (Ecto) [10] = target: T4, Mouse EphA2 (Ecto) (Mouse, UniProt Q03145 26-538); experiment: FP competition, tracer Compound 18
T4 construct: extracellular domain
Procedure, shortened: as §2

[11] = target: EphA2 (species not stated in Examples 1-6 and Reference Examples 1-2) (Homo sapiens (Human)) (UniProt P29317); experiment: fluorescence polarisation competition; fluorescent peptide not named
[12] = target: EphA2 (species not stated in Examples 1-6 and Reference Examples 1-2) (Homo sapiens (Human), UniProt P29317 24-537); experiment: as above
Sequence of EphA2 (species not stated in Examples 1-6 and Reference Examples 1-2) (P29317 24-537 limits assumed, form in doubt): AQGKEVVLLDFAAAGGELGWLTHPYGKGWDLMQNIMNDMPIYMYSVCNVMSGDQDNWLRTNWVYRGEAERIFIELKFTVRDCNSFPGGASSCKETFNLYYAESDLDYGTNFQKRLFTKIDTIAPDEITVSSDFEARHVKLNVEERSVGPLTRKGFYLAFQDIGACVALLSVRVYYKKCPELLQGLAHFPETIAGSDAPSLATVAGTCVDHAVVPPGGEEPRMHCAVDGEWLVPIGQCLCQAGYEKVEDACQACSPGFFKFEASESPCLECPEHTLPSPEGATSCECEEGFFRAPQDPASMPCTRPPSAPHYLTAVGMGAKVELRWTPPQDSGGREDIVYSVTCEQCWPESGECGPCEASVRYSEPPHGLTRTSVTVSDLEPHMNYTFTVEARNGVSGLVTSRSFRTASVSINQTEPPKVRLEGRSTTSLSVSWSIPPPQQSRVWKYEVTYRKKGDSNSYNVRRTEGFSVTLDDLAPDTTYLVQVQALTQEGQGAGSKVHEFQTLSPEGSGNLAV

Sequence of Mouse EphA2 (Ecto) (Mouse) (Q03145 26-538): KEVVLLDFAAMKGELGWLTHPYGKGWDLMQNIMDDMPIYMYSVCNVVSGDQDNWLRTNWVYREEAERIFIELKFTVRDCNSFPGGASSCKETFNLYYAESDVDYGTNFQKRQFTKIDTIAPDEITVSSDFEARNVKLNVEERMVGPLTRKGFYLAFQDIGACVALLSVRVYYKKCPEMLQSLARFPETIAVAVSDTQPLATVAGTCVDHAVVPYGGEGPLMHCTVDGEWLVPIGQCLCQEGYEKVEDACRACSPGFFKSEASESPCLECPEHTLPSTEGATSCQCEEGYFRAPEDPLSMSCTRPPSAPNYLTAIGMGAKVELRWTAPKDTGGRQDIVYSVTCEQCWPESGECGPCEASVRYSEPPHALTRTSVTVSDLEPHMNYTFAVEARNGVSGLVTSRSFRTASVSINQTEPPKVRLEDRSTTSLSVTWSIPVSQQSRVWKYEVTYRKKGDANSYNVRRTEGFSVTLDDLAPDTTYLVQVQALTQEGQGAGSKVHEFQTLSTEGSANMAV
Sequence of Human EphA2 (Ecto) (Human) (P29317 24-537): as the sequence (P29317 24-537 limits assumed, form in doubt) above
T2 sequence (P29317 24-537): as the sequence (P29317 24-537 limits assumed, form in doubt) above
T3 sequence (P29317 24-537): as the sequence (P29317 24-537 limits assumed, form in doubt) above
Sequence of EphA2 (species not stated in Examples 1-6 and Reference Examples 1-2) (Homo sapiens (Human)) (P29317 24-537 limits assumed, form in doubt): as above

[βAla][Sar][Sar][Sar][Sar][Sar][Sar][Sar][Sar][Sar][Sar]A[hArg]DCPLVNPLCLHPGWTC (linker 15-22-29 via TATA) [Bicycle Compound Number 67 (BCY6014) (TATA scaffold), (β-Ala)-Sar10-A(HArg)…]
Ki [1]: 8.51 nM
Ki [2]: 61.7 nM

Ac-[Sar][Sar]H[dD]VPCP[1Nal]G[Aib]F[1Nal]CP[Tle]N[hArg]P[dD]C (linker 7-14-21 via TBMB) [Bicycle Compound 254]
Ki [3]: 0.74 nM
Ki [4]: 0.64 nM

AF488-[βAla][Sar][Sar][Sar][Sar][Sar][Sar][Sar][Sar][Sar][Sar]H[dD]VPCPWGPFWCPVNRPGCA (linker 16-23-30 via TBMB) [Bicycle Compound Number 139 (TBMB scaffold)]
Kd (Mouse EphA2 (Ecto) [5]): 0.8 nM

ACVPQGIWCALQFEPCA (linker 2-9-16 via TBMB (inferred), also called Compound 63) [Bicycle Compound Number 63 (TBMB scaffold)]
Ki [6]: 144 nM
Ki [7]: 92.2 nM
Ki [8]: 82.5 nM

ACRNIPTMCPFGPVWCA (linker 2-9-16 via TBMB, also called Compound 32) [Bicycle Compound Number 32 (TBMB scaffold)]
Ki [6]: 83.4 nM

{Fl″}-[βAla][Sar][Sar][Sar][Sar][Sar][Sar][Sar][Sar][Sar][Sar]A[hArg]DCPLVNPLCLHPGWTC (linker 15-22-29 via TATA) [Bicycle Compound 10 (TATA, Table 11)]
Kd [9]: 9.07 nM

[βAla][Sar][Sar][Sar][Sar][Sar][Sar][Sar][Sar][Sar][Sar]ACPLVNPLCLHPGWSC[hArg]GQ (linker 13-20-27 via TATA) [Bicycle Compound Number 90 (TATA scaffold), (β-Ala)-Sar10-…(HArg)GQ]
Ki [1]: 5.41 nM
Ki [2]: 47 nM

Ac-[Sar][Sar]A[dD]VTCPWGPFWCPVNRPGC (linker 7-14-21 via TBMB′) [Bicycle Compound 158]
Ki (Human EphA2 (Ecto)): 2.05 nM
Ki (Mouse EphA2 (Ecto) [10]): 2.2 nM

Ac-[Sar][Sar]H[dD]VPCPWGPFWCPVNRPGC (linker 7-14-21 via TBMB) [Bicycle Compound 225]
Ki (Human EphA2 (Ecto)): 1 nM
Ki (Mouse EphA2 (Ecto) [10]): 2.08 nM

Ac-[Sar][Sar]H[dD]VPCP[1Nal]G[Aib]F[1Nal]CP[Tle]NR[Aib]GC (linker 7-14-21 via TBMB) [Bicycle Compound 262]
Ki [3]: 0.71 nM
Ki [4]: 0.72 nM

Ac-[βAla][Sar][Sar][Sar][Sar][Sar][Sar][Sar][Sar][Sar][Sar]H[dD]VP[Dap]PWGPFW[Dap]PVNRPGC (linker 16-23-30 via TBMB) [55-03-05-N314]
Ki [11]: 136 nM

B1: 55-03-05-N233 (peptide)
peptide: [βAla][Sar][Sar][Sar][Sar][Sar][Sar][Sar][Sar][Sar][Sar]H[dD]VPCPWGPFWCPVNRPGC
modifications: linker 16-23-30 via TBMB
notes: bicyclic peptide on trimethylene benzene scaffold
Ki [12]: 4.12 nM
